Test results from US20250101446A1, “METHOD FOR GENETIC TRANSFORMATION OF PLANT ORGANELLE GENOME AND USES THEREOF” (Solar Grants Biotechnology Inc., priority 2022, published 2025).

Tests used:
PHA-stimulated PBMCs = assay: Cytokine secretion from PHA-stimulated PBMCs treated with plantakines (multiplex Luminex); format: cell-based, human
Experimental: The bioactivity of our plantakines IL-37b and IL-38 was assessed by monitoring the secretion of 11 cytokines, generally regarded as inflammatory markers, from PBMCs stimulated with an IA. Freshly isolated human PBMCs were subjected to various treatments-combinations of the IAs with the plantakines at different concentrations. Two different model IAs were used, either the bacterial lipopolysaccharides (LPS) or a lectin from Phaseolus vulgaris (phytohaemagglutinin, PHA); each of the IAs was applied onto cells separately, each IA was applied at two concentrations: LPS at 150 and 300 μg/mL; PHA at 5 and 10 μg/mL. Each IA at each concentration was applied in combination with one of the two plantakines, each of them at three different concentrations: 1, 10 and 100 ng/ml of the monomeric forms present in the purified extracts. Also included were treatments comprised of either IA at their lower concentrations, in combination with both plantakines at 10 ng/ml concentration in order to assess possible synergistic effects. Cells with only IAs applied represented the reference (positive controls for each concentration), cells without any treatment represented the basal level (negative control). The levels of eleven different pro-inflammatory cytokines secreted into the medium from the PBMCs-GM-SCF, IFNγ. TNFα, IL-1α, IL-1β, IL-6, IL-8, IL-22, IL12, IL-17 and IL-10 were compared between the treatments and the controls. We applied Generalized Estimating Equation (GEE) model for the statistical data analysis. This statistical approach allows for nested observations and was used to test the effects of the plantakines IL-37b and IL-38 and their dosage in the context of IA-stimulated PBMCs inflammatory responses.
After isolation, the PBMCs from each donor separately were counted, plated in equal numbers per well and stimulated for 24 h with the applied treatments. Control wells on the plate contained media only (as basal level controls), and LPS and PHA (as positive controls at their corresponding concentrations). After the 24 h treatments stimulation the PBMCs' culture supernatants were used in the multiplex Luminex platform-assisted analysis of the concentrations of the 11 secreted pro-inflammatory cytokines.
The whole blood from 5 random human donors was collected in ACD Vacutainer tubes and immediately processed for isolation of PBMCs by gradient density centrifugation using Lympholyte. […] 5% CO2 and >80% humidity. PBMCs were treated with one of two IAs at 2 concentrations each (LPS at 150 and 300 μg/mL; PHA at 5 and 10 μg/mL) in combination with two test items (plant-produced IL-37b or IL-38) at three concentrations each (1, 10 and 100 ng/ml), based on the monomeric form amounts estimated with densitometry (ImageJ). Each treatment was tested in triplicates. Control wells contained media only (negative control, basal level of detection) and the examined IAs at both tested concentrations as the positive controls. The PBMCs were incubated for 24 hours after the stimulation for analysis of the levels of the secreted cytokines that were determined in the culture supernatant using a multiplex immunoassay (MAGPix®, Luminex), analytes were selected from the Milliplex panel HCYTOMAG-60K, sensitivity range of […]. All parameters of the Milliplex panel cytokines analysis using Luminex platform were validated (Millipore-Sigma).
Non-linear logarithm transformation was performed to address non-normality of distribution of Luminex-derived numeric data. Generalized Estimating Equation (GEE) method was used in the analysis of nested (correlated) structure of the data. Secreted inflammatory cytokine values were used as dependent variables and test item (plantakines) with dosage as independent predictors (factors). Separate analyses were conducted for each of the 11 monitored cytokines and each inflammatory agent/concentration combination. […]

[1] = system: human NSCLC cell line NCI-H1792; assay: Attenuation of P1-induced IL-6 secretion in NCI-H1792 cells by pre-treatment with plant-produced cytokines (ELISA); format: cell-based; conditions: H1792 cells; pre-incubated 3 h, 1.0 ng/ml; P1 24 h

B1: plant-produced recombinant human IL-38, mature form C2-W152 with C-terminal 7xHIS tag (ligand)
chain: CSLPMARYYIIKYADQKALYTRDGQLLVGDPVADNCCAEKICILPNRGLARTKVPIFLGIQGGSRCLACVETEEGPSLQLEDVNIEELYKGGEEATRFTFFQSSSGSAFRLEAAAWPGWFLCGPAEPQQPVQLTKESEPSARTKFYFEQSWHHHHHHH
notes: range 2-152; also called rhIL-38; plantakine IL-38
secreted GM-CSF level modulation vs positive control (PHA-stimulated PBMCs; 1 ng/mL, PHA 5 μg/mL): 18.0%, p = 0.403 | secreted IFNγ level modulation vs positive control (PHA-stimulated PBMCs; 1 ng/mL, PHA 5 μg/mL): −35.6%, p = 0.137 | secreted IL-1α level modulation vs positive control (PHA-stimulated PBMCs; 1 ng/mL, PHA 5 μg/mL): −9.5%, p = 0.480 | secreted IL-1β level modulation vs positive control (PHA-stimulated PBMCs; 1 ng/mL, PHA 5 μg/mL): −2.0%, p = 0.888 | secreted IL-6 level modulation vs positive control (PHA-stimulated PBMCs; 1 ng/mL, PHA 5 μg/mL): −5.8%, p = 0.798 | secreted IL-8 level modulation vs positive control (PHA-stimulated PBMCs; 1 ng/mL, PHA 5 μg/mL): −11.3%, p = 0.736 | secreted IL-10 level modulation vs positive control (PHA-stimulated PBMCs; 1 ng/mL, PHA 5 μg/mL): 17.4%, p = 0.244 | secreted IL-12 level modulation vs positive control (PHA-stimulated PBMCs; 1 ng/mL, PHA 5 μg/mL): 63.3%, p = 0.020 | secreted IL-17 level modulation vs positive control (PHA-stimulated PBMCs; 1 ng/mL, PHA 5 μg/mL): 4.1%, p = 0.807 | secreted IL-22 level modulation vs positive control (PHA-stimulated PBMCs; 1 ng/mL, PHA 5 μg/mL): 8.1%, p = 0.631 | secreted TNFα level modulation vs positive control (PHA-stimulated PBMCs; 1 ng/mL, PHA 5 μg/mL): 46.2%, p = 0.173 | secreted GM-CSF level modulation vs positive control (PHA-stimulated PBMCs; 1 ng/mL, PHA 10 μg/mL): 1.5%, p = 0.881 | secreted IFNγ level modulation vs positive control (PHA-stimulated PBMCs; 1 ng/mL, PHA 10 μg/mL): −36.9%, p = 0.164 | secreted IL-1α level modulation vs positive control (PHA-stimulated PBMCs; 1 ng/mL, PHA 10 μg/mL): −5.8%, p = 0.469 | secreted IL-1β level modulation vs positive control (PHA-stimulated PBMCs; 1 ng/mL, PHA 10 μg/mL): 0.0%, p = 1.000 | secreted IL-6 level modulation vs positive control (PHA-stimulated PBMCs; 1 ng/mL, PHA 10 μg/mL): −2.0%, p = 0.898 | secreted IL-8 level modulation vs positive control (PHA-stimulated PBMCs; 1 ng/mL, PHA 10 μg/mL): −5.8%, p = 0.823 | secreted IL-10 level modulation vs positive control (PHA-stimulated PBMCs; 1 ng/mL, PHA 10 μg/mL): 22.1%, p = 0.033 | secreted IL-12 level modulation vs positive control (PHA-stimulated PBMCs; 1 ng/mL, PHA 10 μg/mL): 22.2%, p = 0.476 | secreted IL-17 level modulation vs positive control (PHA-stimulated PBMCs; 1 ng/mL, PHA 10 μg/mL): 22.1%, p = 0.166 | secreted IL-22 level modulation vs positive control (PHA-stimulated PBMCs; 1 ng/mL, PHA 10 μg/mL): 86.8%, p < 0.001 | secreted TNFα level modulation vs positive control (PHA-stimulated PBMCs; 1 ng/mL, PHA 10 μg/mL): 55.3%, p = 0.411 | secreted IFNγ level modulation vs positive control (PHA-stimulated PBMCs; 10 ng/mL, PHA 5 μg/mL): −53.2%, p = 0.032 | secreted IL-1α level modulation vs positive control (PHA-stimulated PBMCs; 10 ng/mL, PHA 5 μg/mL): 4.1%, p = 0.690 | secreted IL-1β level modulation vs positive control (PHA-stimulated PBMCs; 10 ng/mL, PHA 5 μg/mL): 4.1%, p = 0.801 | secreted IL-6 level modulation vs positive control (PHA-stimulated PBMCs; 10 ng/mL, PHA 5 μg/mL): 10.5%, p = 0.538 | secreted IL-8 level modulation vs positive control (PHA-stimulated PBMCs; 10 ng/mL, PHA 5 μg/mL): 8.3%, p = 0.772 | secreted IL-10 level modulation vs positive control (PHA-stimulated PBMCs; 10 ng/mL, PHA 5 μg/mL): 15.0%, p = 0.224 | secreted IL-12 level modulation vs positive control (PHA-stimulated PBMCs; 10 ng/mL, PHA 5 μg/mL): 107.0%, p = 0.079 | secreted IL-17 level modulation vs positive control (PHA-stimulated PBMCs; 10 ng/mL, PHA 5 μg/mL): 24.6%, p = 0.215 | secreted IL-22 level modulation vs positive control (PHA-stimulated PBMCs; 10 ng/mL, PHA 5 μg/mL): 55.8%, p < 0.001 | secreted TNFα level modulation vs positive control (PHA-stimulated PBMCs; 10 ng/mL, PHA 5 μg/mL): 49.2%, p = 0,123 | secreted GM-CSF level modulation vs positive control (PHA-stimulated PBMCs; 10 ng/mL, PHA 10 μg/mL): 42.6%, p = 0.016 | secreted IFNγ level modulation vs positive control (PHA-stimulated PBMCs; 10 ng/mL, PHA 10 μg/mL): −53.2%, p = 0.046 | secreted IL-1α level modulation vs positive control (PHA-stimulated PBMCs; 10 ng/mL, PHA 10 μg/mL): −2.0%, p = 0.893 | secreted IL-1β level modulation vs positive control (PHA-stimulated PBMCs; 10 ng/mL, PHA 10 μg/mL): 4.1%, p = 0.761 | secreted IL-6 level modulation vs positive control (PHA-stimulated PBMCs; 10 ng/mL, PHA 10 μg/mL): 6.2%, p = 0.722 | secreted IL-8 level modulation vs positive control (PHA-stimulated PBMCs; 10 ng/mL, PHA 10 μg/mL): −3.9%, p = 0.886 | secreted IL-10 level modulation vs positive control (PHA-stimulated PBMCs; 10 ng/mL, PHA 10 μg/mL): 32.3%, p < 0.001 | secreted IL-12 level modulation vs positive control (PHA-stimulated PBMCs; 10 ng/mL, PHA 10 μg/mL): 8.8%, p = 0.750 | secreted IL-17 level modulation vs positive control (PHA-stimulated PBMCs; 10 ng/mL, PHA 10 μg/mL): 19.7%, p = 0.188 | secreted IL-22 level modulation vs positive control (PHA-stimulated PBMCs; 10 ng/mL, PHA 10 μg/mL): 61.7%, p = 0.061 | secreted TNFα level modulation vs positive control (PHA-stimulated PBMCs; 10 ng/mL, PHA 10 μg/mL): 166.4%, p = 0.105 | secreted IFNγ level modulation vs positive control (PHA-stimulated PBMCs; 100 ng/mL, PHA 5 μg/mL): 6.2%, p = 0.856 | secreted IL-1α level modulation vs positive control (PHA-stimulated PBMCs; 100 ng/mL, PHA 5 μg/mL): 46.2%, p = 0.015 | secreted IL-1β level modulation vs positive control (PHA-stimulated PBMCs; 100 ng/mL, PHA 5 μg/mL): 43.3%, p = 0.019 | secreted IL-6 level modulation vs positive control (PHA-stimulated PBMCs; 100 ng/mL, PHA 5 μg/mL): 15.0%, p = 0.432 | secreted IL-8 level modulation vs positive control (PHA-stimulated PBMCs; 100 ng/mL, PHA 5 μg/mL): 10.5%, p = 0.731 | secreted IL-10 level modulation vs positive control (PHA-stimulated PBMCs; 100 ng/mL, PHA 5 μg/mL): 15.0%, p = 0.275 | secreted IL-12 level modulation vs positive control (PHA-stimulated PBMCs; 100 ng/mL, PHA 5 μg/mL): 123.0%, p < 0.001 | secreted IL-17 level modulation vs positive control (PHA-stimulated PBMCs; 100 ng/mL, PHA 5 μg/mL): 29.7%, p = 0.107 | secreted IL-22 level modulation vs positive control (PHA-stimulated PBMCs; 100 ng/mL, PHA 5 μg/mL): 15.3%, p = 0.347 | secreted TNFα level modulation vs positive control (PHA-stimulated PBMCs; 100 ng/mL, PHA 5 μg/mL): 85.9%, p = 0.026 | secreted IFNγ level modulation vs positive control (PHA-stimulated PBMCs; 100 ng/mL, PHA 10 μg/mL): 6.2%, p = 0.852 | secreted IL-1α level modulation vs positive control (PHA-stimulated PBMCs; 100 ng/mL, PHA 10 μg/mL): 40.5%, p < 0.001 | secreted IL-1β level modulation vs positive control (PHA-stimulated PBMCs; 100 ng/mL, PHA 10 μg/mL): 46.2%, p = 0.001 | secreted IL-6 level modulation vs positive control (PHA-stimulated PBMCs; 100 ng/mL, PHA 10 μg/mL): 4.1%, p = 0.810 | secreted IL-8 level modulation vs positive control (PHA-stimulated PBMCs; 100 ng/mL, PHA 10 μg/mL): −2.0%, p = 0.943 | secreted IL-10 level modulation vs positive control (PHA-stimulated PBMCs; 100 ng/mL, PHA 10 μg/mL): 22.1%, p = 0.033 | secreted IL-12 level modulation vs positive control (PHA-stimulated PBMCs; 100 ng/mL, PHA 10 μg/mL): 74.3%, p = 0.002 | secreted IL-17 level modulation vs positive control (PHA-stimulated PBMCs; 100 ng/mL, PHA 10 μg/mL): 55.3%, p = 0.003 | secreted IL-22 level modulation vs positive control (PHA-stimulated PBMCs; 100 ng/mL, PHA 10 μg/mL): 50.0%, p = 0.020 | secreted TNFα level modulation vs positive control (PHA-stimulated PBMCs; 100 ng/mL, PHA 10 μg/mL): 252.5%, p = 0.017 | Decreased secretion: number of treatments with statistically significant modulation (PHA-stimulated PBMCs; PHA 5 μg/mL): 1 | Increased secretion: number of treatments with statistically significant modulation (PHA-stimulated PBMCs; PHA 5 μg/mL): 7 | Decreased secretion: number of treatments with statistically significant modulation (PHA-stimulated PBMCs; PHA 10 μg/mL): 1 | Increased secretion: number of treatments with statistically significant modulation (PHA-stimulated PBMCs; PHA 10 μg/mL): 12 | attenuation of IL-6 secretion triggered by P1 [1]: −60%
